# Test results as given in FireProtDB (doi:10.1002/prot.1147).
# Values joined by “and” are separate entries in the source; they are usually repeats but may differ in a detail not shown here. Equal entries are not always repeated.
# B1: Lysozyme C, P61626 (parent)
# chain: MKALIVLGLVLLSVTVQGKVFERCELARTLKRLGMDGYRGISLANWMCLAKWESGYNTRATNYNAGDRSTDYGIFQINSRYWCNDGKTPGAVNACHLSCSALLQDNIADAVACAKRVVRDPQGIRAWVAWRNRCQNRDVRQYVQGCGV
# Variants of: B1
# Conditions: Homo sapiens; pH 2.67; Thermal; DSC; Gly-HCl 0.05 M; reversible: yes; structure 1LZ1; whole UniProt chain shown
Variant,Tm,unfolding enthalpy (calorimetric)
G147A,64.9 °C,99.7 kcal/mol

# Same assay, conditions: Homo sapiens; pH 2.7; 64.9 °C; Thermal; DSC; Gly-HCl 0.05 M; reversible: yes; structure 1LZ1; whole UniProt chain shown
Variant,ddG of mutation (higher = less stable),heat capacity change of unfolding
G147A,-0.14 kcal/mol,1.29 kcal/mol/K
G123A,0.62 kcal/mol,1.36 kcal/mol/K
G90A,0.36 kcal/mol,1.43 kcal/mol/K
G86A,0.12 kcal/mol,1.65 kcal/mol/K
G34A,1.39 kcal/mol,1.58 kcal/mol/K
G37A,1.77 kcal/mol,1.58 kcal/mol/K
G66A,-0.45 kcal/mol,1.6 kcal/mol/K

# Same assay, conditions: Homo sapiens; pH 2.7; Thermal; DSC; Gly-HCl 0.05 M; reversible: yes; structure 1LZ1; whole UniProt chain shown
Variant,Tm,"change of melting temperature, mutant - wild type (higher = more stable)",heat capacity change of unfolding,unfolding enthalpy (calorimetric)
G147A,65.4 °C,0.5 °C,1.29 kcal/mol/K,99.7 kcal/mol
G123A,62.8 °C,-2.1 °C,1.36 kcal/mol/K,103 kcal/mol
G90A,63.8 °C,-1.1 °C,1.43 kcal/mol/K,109 kcal/mol
G40A,57.7 °C,-7.2 °C,,77 kcal/mol and 88.4 kcal/mol
G86A,64.5 °C,-0.4 °C,1.65 kcal/mol/K,108 kcal/mol
G34A,60.3 °C,-4.6 °C,,96.3 kcal/mol and 103 kcal/mol
G55A,64 °C,-0.9 °C,1.53 kcal/mol/K,108 kcal/mol
G37A,59.4 °C,-5.5 °C,,102 kcal/mol and 111 kcal/mol
G66A,66.4 °C,1.5 °C,1.6 kcal/mol/K,101 kcal/mol

# Same assay, conditions: Homo sapiens; pH 2.79; Thermal; DSC; Gly-HCl 0.05 M; reversible: yes; structure 1LZ1; whole UniProt chain shown
Variant,Tm,unfolding enthalpy (calorimetric)
G147A,67.1 °C,102 kcal/mol

# Same assay, conditions: Homo sapiens; pH 2.8; Thermal; DSC; Gly-HCl 0.05 M; reversible: yes; structure 1LZ1; whole UniProt chain shown
Variant,Tm,unfolding enthalpy (calorimetric)
G147A,67.2 °C,103 kcal/mol

# Same assay, conditions: Homo sapiens; pH 2.3; Thermal; DSC; Gly-HCl 0.05 M; reversible: yes; structure 1LZ1; whole UniProt chain shown
Variant,Tm,unfolding enthalpy (calorimetric)
G123A,56.1 °C,90.8 kcal/mol

# Same assay, conditions: Homo sapiens; pH 2.65; Thermal; DSC; Gly-HCl 0.05 M; reversible: yes; structure 1LZ1; whole UniProt chain shown
Variant,Tm,unfolding enthalpy (calorimetric)
G123A,61.3 °C,97.5 kcal/mol

# Same assay, conditions: Homo sapiens; pH 3.2; Thermal; DSC; Gly-HCl 0.05 M; reversible: yes; structure 1LZ1; whole UniProt chain shown
Variant,Tm,unfolding enthalpy (calorimetric)
G123A,71.8 °C,112 kcal/mol
G66A,75.1 °C,117 kcal/mol

# Same assay, conditions: Homo sapiens; pH 2.38; Thermal; DSC; Gly-HCl 0.05 M; reversible: yes; structure 1LZ1; whole UniProt chain shown
Variant,Tm,unfolding enthalpy (calorimetric)
G90A,58.2 °C,99.9 kcal/mol
G55A,58.1 °C,97 kcal/mol

# Same assay, conditions: Homo sapiens; pH 2.64; Thermal; DSC; Gly-HCl 0.05 M; reversible: yes; structure 1LZ1; whole UniProt chain shown
Variant,Tm,unfolding enthalpy (calorimetric)
G90A,62.6 °C,106 kcal/mol

# Same assay, conditions: Homo sapiens; pH 3.16; Thermal; DSC; Gly-HCl 0.05 M; reversible: yes; structure 1LZ1; whole UniProt chain shown
Variant,Tm,unfolding enthalpy (calorimetric)
G90A,72.2 °C,120 kcal/mol
G145A,71.1 °C,118 kcal/mol

# Same assay, conditions: Homo sapiens; pH 2.6; Thermal; DSC; Gly-HCl 0.05 M; reversible: yes; structure 1LZ1; whole UniProt chain shown
Variant,Tm,unfolding enthalpy (calorimetric)
G86A,62.8 °C,103 kcal/mol
G55A,62.4 °C,104 kcal/mol
G145A,61.6 °C,104 kcal/mol

# Same assay, conditions: Homo sapiens; pH 2.72; Thermal; DSC; Gly-HCl 0.05 M; reversible: yes; structure 1LZ1; whole UniProt chain shown
Variant,Tm,unfolding enthalpy (calorimetric)
G86A,64.9 °C,109 kcal/mol

# Same assay, conditions: Homo sapiens; pH 3; Thermal; DSC; Gly-HCl 0.05 M; reversible: yes; structure 1LZ1; whole UniProt chain shown
Variant,Tm,unfolding enthalpy (calorimetric)
G86A,69.2 °C,114 kcal/mol

# Same assay, conditions: Homo sapiens; pH 3.18; Thermal; DSC; Gly-HCl 0.05 M; reversible: yes; structure 1LZ1; whole UniProt chain shown
Variant,Tm,unfolding enthalpy (calorimetric)
G55A,72.4 °C,119 kcal/mol

# Same assay, conditions: Homo sapiens; pH 2.4; Thermal; DSC; Gly-HCl 0.05 M; reversible: yes; structure 1LZ1; whole UniProt chain shown
Variant,Tm,unfolding enthalpy (calorimetric)
G66A,61.1 °C,94.9 kcal/mol

# Same assay, conditions: Homo sapiens; pH 2.68; Thermal; DSC; Gly-HCl 0.05 M; reversible: yes; structure 1LZ1; whole UniProt chain shown
Variant,Tm,unfolding enthalpy (calorimetric)
G66A,66 °C,102 kcal/mol

# Same assay, conditions: Homo sapiens; pH 2.2; Thermal; DSC; Gly-HCl 0.05 M; reversible: yes; structure 1LZ1; whole UniProt chain shown
Variant,Tm,unfolding enthalpy (calorimetric)
G145A,54.6 °C,94.2 kcal/mol
